Data reported in patent US20230340151A1 (Pfizer, published 2023).
Each block holds one binder with its values, some of them ahead of it.

Legend:
[1] = biological target: T1, Purified human GUCY2c ECD (recombinant, construct not stated) (human, UniProt P25092 24-430); assay: ELISA; column 'Direct huGUCY2C binding (nM)'
T1 construct: also called recombinant human GUCY2c; recombinant GUCY2c protein

[2] = biological target: T2, Cynomolgus GUCY2C-ECD Cleaved (cynomolgus, UniProt P25092 24-430 (human entry)); assay: SPR, anti-human IgG capture, 25 C
T2 construct: also called CyGUCY2C
T2 chain: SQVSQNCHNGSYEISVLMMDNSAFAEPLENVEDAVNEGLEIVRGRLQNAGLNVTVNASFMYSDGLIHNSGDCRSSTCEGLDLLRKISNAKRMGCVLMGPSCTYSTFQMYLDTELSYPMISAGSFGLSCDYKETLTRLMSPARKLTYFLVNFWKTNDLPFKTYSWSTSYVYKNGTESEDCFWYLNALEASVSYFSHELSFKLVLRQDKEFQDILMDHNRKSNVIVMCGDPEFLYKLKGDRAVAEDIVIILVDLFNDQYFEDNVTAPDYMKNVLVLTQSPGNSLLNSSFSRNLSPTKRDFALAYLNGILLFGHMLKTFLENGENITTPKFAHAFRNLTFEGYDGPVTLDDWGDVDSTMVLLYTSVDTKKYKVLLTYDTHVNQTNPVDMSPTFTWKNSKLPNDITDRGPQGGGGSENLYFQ

[3] = biological target: T1, Purified human GUCY2c ECD (recombinant, …); assay: direct ELISA, coated GUCY2c ECD
[4] = biological target: T3, Cynomolgus CD3 epsilon-delta (cynomolgus); assay: SPR, printed anti-His capture, 25 C (Table 33D)
T3 chain: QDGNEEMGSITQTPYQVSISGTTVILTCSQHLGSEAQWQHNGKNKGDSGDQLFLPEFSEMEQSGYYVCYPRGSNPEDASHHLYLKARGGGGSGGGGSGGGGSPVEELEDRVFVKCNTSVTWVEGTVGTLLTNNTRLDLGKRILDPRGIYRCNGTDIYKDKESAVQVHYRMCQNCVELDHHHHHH

[5] = biological target: Human GUCY2c on tumor cells (T84, HT55) (human, UniProt P25092 24-1073); assay: cell-based or functional assay
Human CD3 epsilon-delta [6] = biological target: T4, Human CD3 epsilon-delta (human); assay: SPR, anti-human IgG capture, 25 C
T4 construct: Single-chain epsilon-linker-delta with His6; also called huCD3
T4 chain: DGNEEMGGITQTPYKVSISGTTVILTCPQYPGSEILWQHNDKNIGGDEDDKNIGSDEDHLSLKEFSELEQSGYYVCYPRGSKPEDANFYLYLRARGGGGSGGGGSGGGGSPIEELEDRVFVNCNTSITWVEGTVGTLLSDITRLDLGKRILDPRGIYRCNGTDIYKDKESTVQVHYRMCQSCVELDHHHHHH

Human GUCY2C ECD-muIgG2a = biological target: T5, Human GUCY2C ECD-muIgG2a (human); assay: sandwich ELISA: CD3 epsilon-delta coated, GUCY2c ECD-mIgG2a Fc in solution
T5 construct: also called human GUCY2c ECD-mouse IgG2a Fc fusion protein; huGUCY2c-mIgG2a

[7] = biological target: T6, Human GUCY2C full length (SEQ ID NO: 224), recombinant protein (human, UniProt P25092 24-430, limits assumed); assay: SPR, anti-human IgG capture, 25 C
T6 construct: also called huGUCY2C; biotinylated human GUCY2c

Human CD3 epsilon-delta [8] = biological target: T4, Human CD3 epsilon-delta; assay: direct ELISA, coated CD3 epsilon-delta
[9] = biological target: T7, Murine GUCY2C-ECD cleaved (mouse, UniProt Q3UWA6 20-433); assay: SPR, anti-human IgG capture, 25 C
T7 sequence: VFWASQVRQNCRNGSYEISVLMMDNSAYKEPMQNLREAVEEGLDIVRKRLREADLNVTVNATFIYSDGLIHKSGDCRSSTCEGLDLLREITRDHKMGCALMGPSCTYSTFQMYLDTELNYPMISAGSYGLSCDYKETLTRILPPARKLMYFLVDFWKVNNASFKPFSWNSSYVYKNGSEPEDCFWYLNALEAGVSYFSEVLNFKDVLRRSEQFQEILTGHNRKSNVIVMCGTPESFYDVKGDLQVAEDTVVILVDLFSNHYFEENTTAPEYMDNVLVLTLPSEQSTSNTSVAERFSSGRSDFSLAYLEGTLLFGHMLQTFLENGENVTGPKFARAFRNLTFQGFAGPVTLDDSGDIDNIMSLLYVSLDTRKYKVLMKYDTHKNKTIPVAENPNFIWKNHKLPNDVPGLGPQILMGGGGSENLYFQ

T6 sequence (P25092 24-430 F281L limits assumed): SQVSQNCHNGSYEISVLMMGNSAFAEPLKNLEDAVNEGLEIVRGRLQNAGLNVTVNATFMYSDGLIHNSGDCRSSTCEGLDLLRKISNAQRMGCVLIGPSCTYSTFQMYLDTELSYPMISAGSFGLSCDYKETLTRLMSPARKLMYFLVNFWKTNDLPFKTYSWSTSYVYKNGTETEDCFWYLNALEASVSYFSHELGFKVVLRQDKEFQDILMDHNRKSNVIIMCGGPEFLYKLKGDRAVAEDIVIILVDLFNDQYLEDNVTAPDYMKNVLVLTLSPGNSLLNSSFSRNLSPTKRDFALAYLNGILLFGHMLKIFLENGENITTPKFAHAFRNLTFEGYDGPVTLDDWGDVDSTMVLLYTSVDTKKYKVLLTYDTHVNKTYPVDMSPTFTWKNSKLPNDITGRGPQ
T1 sequence (P25092 24-430 limits assumed): as the sequence (P25092 24-430 F281L limits assumed) above, with L258F counted along it
Human GUCY2c on tumor cells (T84, HT55), sequence (P25092 24-1073 limits assumed): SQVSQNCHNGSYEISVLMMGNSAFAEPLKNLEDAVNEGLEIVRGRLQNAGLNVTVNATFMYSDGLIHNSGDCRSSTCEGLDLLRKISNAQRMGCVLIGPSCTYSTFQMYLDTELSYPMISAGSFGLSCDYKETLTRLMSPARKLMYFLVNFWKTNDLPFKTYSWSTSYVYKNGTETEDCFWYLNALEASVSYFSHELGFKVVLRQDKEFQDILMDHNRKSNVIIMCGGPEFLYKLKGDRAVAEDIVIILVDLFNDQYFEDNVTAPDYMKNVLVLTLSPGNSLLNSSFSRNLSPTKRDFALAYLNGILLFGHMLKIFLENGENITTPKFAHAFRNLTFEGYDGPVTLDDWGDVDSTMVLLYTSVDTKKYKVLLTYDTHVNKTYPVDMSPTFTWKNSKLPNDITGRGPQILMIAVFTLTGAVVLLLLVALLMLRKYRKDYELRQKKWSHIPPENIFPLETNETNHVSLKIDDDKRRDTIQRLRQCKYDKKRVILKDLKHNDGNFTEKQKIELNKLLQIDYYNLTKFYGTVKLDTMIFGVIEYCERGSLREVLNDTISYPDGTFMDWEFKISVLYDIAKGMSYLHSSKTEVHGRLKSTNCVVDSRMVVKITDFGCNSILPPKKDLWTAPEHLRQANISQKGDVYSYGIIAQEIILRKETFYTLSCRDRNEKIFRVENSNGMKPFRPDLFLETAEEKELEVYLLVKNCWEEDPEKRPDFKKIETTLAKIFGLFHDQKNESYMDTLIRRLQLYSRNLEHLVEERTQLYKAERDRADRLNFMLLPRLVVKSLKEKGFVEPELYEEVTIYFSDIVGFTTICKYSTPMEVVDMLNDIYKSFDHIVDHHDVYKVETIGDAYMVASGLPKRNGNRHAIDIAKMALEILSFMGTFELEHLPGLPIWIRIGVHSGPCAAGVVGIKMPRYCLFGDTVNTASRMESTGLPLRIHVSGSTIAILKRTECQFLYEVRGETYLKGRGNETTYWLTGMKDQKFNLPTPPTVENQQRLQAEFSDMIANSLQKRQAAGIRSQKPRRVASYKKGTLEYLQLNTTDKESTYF
T5 sequence (chain, as listed by the source limits assumed): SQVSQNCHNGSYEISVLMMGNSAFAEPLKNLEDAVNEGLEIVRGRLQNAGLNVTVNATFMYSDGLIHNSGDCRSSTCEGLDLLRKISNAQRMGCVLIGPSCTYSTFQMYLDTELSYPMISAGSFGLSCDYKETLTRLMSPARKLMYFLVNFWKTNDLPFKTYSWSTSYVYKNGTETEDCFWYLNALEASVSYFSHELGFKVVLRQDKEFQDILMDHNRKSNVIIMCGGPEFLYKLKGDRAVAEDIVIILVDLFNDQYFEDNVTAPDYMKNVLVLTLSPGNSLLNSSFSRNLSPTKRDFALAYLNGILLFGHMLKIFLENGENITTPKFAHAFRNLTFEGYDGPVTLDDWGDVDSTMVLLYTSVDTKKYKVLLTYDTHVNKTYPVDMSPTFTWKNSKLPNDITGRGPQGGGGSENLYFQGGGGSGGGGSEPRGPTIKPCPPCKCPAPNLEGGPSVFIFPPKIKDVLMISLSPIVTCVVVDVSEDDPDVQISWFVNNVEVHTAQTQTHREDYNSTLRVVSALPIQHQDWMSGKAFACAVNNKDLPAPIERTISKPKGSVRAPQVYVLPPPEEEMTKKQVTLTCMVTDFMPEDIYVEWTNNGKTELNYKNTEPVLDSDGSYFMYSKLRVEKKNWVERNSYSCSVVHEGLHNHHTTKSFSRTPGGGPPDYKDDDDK

EC50 [1]: 0.23 nM
B1: GUCY2C-0193 (antibody, human IgG1, V domains shown)
VH: EVQLVESGGGLVQPGGSLRLSCAASGYTFTSYWMHWVRQAPGKGLEWIGEIKPSNGLTNYIEKFKNRFTISVDKAKNSAYLQMNSLRAEDTAVYYCTRTITTTEGYWFFDVWGQGTLVTVSS
VL: DIQMTQSPSSLSASVGDRVTITCRASESVDYYGTSLMQWYQQKPGKAPKLLIYAASNVESGVPSRFSGSGSGTDFTLTISSLQPEDFATYYCQQTRKVYTFGQGTKLEIK

EC50 [1]: 5.14 nM
B2: GUCY2C-0179 (antibody, human IgG1, V domains shown)
VH: EVQLVESGGGLVQPGGSLRLSCAASGYSFTDYIMLWVRQAPGKGLEWIGNSNPYYGSTSYNLKFKGRFTISVDKAKNSAYLQMNSLRAEDTAVYYCARSGYYGSSPYWYFDVWGQGTMVTVSS
VL: DIQMTQSPSSLSASVGDRVTITCKSSQSLLYSSNQKNYLAWYQQKPGKSPKLLIYWASTRESGVPSRFSGSGSGTDFTLTISSLQPEDFATYYCQQYYSYPTFGGGTKVEIK

Kd [2]: 60.4 nM | koff [2]: 0.00284 s⁻¹ | kon [2]: 47300 M⁻¹ s⁻¹ | EC50 [3]: > 100 nM | Kd [4]: 2.64 nM | koff [4]: 0.00112 s⁻¹ | kon [4]: 425000 M⁻¹ s⁻¹ | Kd (Human CD3 epsilon-delta [6]): 2.17 nM | koff (Human CD3 epsilon-delta [6]): 0.000861 s⁻¹ | kon (Human CD3 epsilon-delta [6]): 471000 M⁻¹ s⁻¹ | EC50 (Human GUCY2C ECD-muIgG2a): 4.05 nM | Kd [7]: 45.4 nM | koff [7]: 0.002 s⁻¹ | kon [7]: 44100 M⁻¹ s⁻¹ | EC50 (Human CD3 epsilon-delta [8]): 1.13 nM | Kd [9]: 191 nM | koff [9]: 0.00282 s⁻¹ | kon [9]: 14800 M⁻¹ s⁻¹
B3: GUCY2C-0074 (bispecific antibody)
chain 1: DIVLTQSPASLAVSLGQRATISCRASESVDNYGISFMNWFQQKPGQPPKLLIYAASNPGSGVPARFSGSGSGTDFSLNIHPLEEDDTAMFFCQQSKEVPYTFGGGTKLEIKGGGSGGGGEVQLVESGGGLVQPGGSLRLSCAASGFTFSDYYMTWVRQAPGKGLEWVAFIRNRARGYTSDHNPSVKGRFTISRDNAKNSLYLQMNSLRAEDTAVYYCARDRPSYYVLDYWGQGTTVTVSSGCPPCPAPEAAGAPSVFLFPPKPKDTLMISRTPEVTCVVVDVSHEDPEVKFNWYVDGVEVHNAKTKPREEQYNSTYRVVSVLTVLHQDWLNGKEYKCKVSNKALPAPIEKTISKAKGQPREPQVCTLPPSREEMTKNQVSLWCLVKGFYPSDIAVEWESNGQPENNYKTTPPVLDSDGSFFLYSKLTVDKSRWQQGNVFSCSVMHEALHNHYTQKSLSLSPG
chain 2: DIVMTQSPDSLAVSLGERATINCKSSQSLFNVRSRKNYLAWYQQKPGQPPKLLISWASTRESGVPDRFSGSGSGTDFTLTISSLQAEDVAVYYCKQSYDLFTFGSGTKLEIKGGGSGGGGEVQLQQSGAELARPGASVNLSCKASGYTFTTYWMQWVKQRPGQGLEWIGAIYPGDGMTTYTQKFKDKATLTADKSSSTAYMQLSSLASEDSAVYYCVRKGMDYWGQGTSVTVSSGCPPCPAPEAAGAPSVFLFPPKPKDTLMISRTPEVTCVVVDVSHEDPEVKFNWYVDGVEVHNAKTKPREEQYNSTYRVVSVLTVLHQDWLNGKEYKCKVSNKALPAPIEKTISKAKGQPREPQVYTLPPCREEMTKNQVSLSCAVKGFYPSDIAVEWESNGQPENNYKTTPPVLDSDGSFFLVSKLTVDKSRWQQGNVFSCSVMHEALHNHYTQKSLSLSPG
notes: chimeric CD3-GUCY2c diabody-Fc, CD3-0004
T84 tumor cell EC50 (T cell cytotoxicity, E:T 10:1) [5]: 2.6 nM

EC50 [1]: 0.0693 nM
B4: GUCY2C-0166 (antibody, human IgG1, V domains shown)
VH: EVQLVESGGGLVQPGGSLRLSCAASGYTFTTYWMQWVRQAPGKGLEWIGAIYPGDGMTTYTQKFKDRFTISADKAKNSAYLQMNSLRAEDTAVYYCVRKGMDYWGQGTLVTVSS
VL: DIQLTQSPSSLSASVGDRVTITCRASESVDNYGISFMNWFQQKPGKAPKLLIYAASNPGSGVPSRFSGSGSGTDFTLTISSLQPEDFATYYCQQSKEVPYTFGQGTKLEIK
notes: human IgG1
